Measured values as given in article PMC3376167 (The Journal of Physical Chemistry. B, 2012).

Target: the molecule itself
Experiment: NMR 15N R2 relaxation

B1: HIF-1α PAS-B domain single mutant (R245E), construct 947 (domain or fragment)
chain: not shown
binding result: binds
